According to patent US20200399344A1 (SHATTUCK LABS, published 2020):
Where two headings read alike, the source gives them in different places.

T1: recombinant human 2B4 protein (rh2B4-His) (human, UniProt Q9BZW8-2 22-221, limits assumed)
T1 construct: also called recombinant 2B4-His protein; not shown: His tag
T1 sequence (looked up): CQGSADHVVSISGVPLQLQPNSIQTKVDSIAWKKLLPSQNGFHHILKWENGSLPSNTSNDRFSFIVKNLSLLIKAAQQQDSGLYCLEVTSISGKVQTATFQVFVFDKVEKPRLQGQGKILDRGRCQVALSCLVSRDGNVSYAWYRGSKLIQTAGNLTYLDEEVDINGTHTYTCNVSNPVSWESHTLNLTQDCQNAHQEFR

T2: recombinant human SLAMF6-Fc (rhSLAMF6-Fc) protein (human, UniProt Q96DU3 22-226)
T2 construct: not shown: Fc
T2 sequence (looked up): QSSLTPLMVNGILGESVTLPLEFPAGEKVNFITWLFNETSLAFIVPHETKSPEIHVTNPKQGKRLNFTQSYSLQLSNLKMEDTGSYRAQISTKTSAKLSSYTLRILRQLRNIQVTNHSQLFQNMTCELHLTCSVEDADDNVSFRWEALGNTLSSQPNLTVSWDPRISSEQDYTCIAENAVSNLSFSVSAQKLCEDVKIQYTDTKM

T3: hCD2 expressed on CHO-K1/hCD2 cells (human, UniProt P06729 25-351)
T3 construct: whole, on cells
T3 sequence (looked up): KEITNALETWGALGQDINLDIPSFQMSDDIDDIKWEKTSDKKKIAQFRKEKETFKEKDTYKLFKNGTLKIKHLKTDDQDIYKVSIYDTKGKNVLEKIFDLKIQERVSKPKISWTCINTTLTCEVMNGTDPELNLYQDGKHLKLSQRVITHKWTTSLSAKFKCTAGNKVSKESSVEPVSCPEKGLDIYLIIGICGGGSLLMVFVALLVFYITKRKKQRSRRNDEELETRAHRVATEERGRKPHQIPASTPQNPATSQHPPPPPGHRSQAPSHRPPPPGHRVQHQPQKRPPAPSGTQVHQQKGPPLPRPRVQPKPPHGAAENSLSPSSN

B1: recombinant human CD48-Fc (rhCD48-Fc) protein (Fc fusion, UniProt P09326 27-220, looked up)
chain: QGHLVHMTVVSGSNVTLNISESLPENYKQLTWFYTFDQKIVEWDSRKSKYFESKFKGRVRLDPQSGALYISKVQKEDNSTYIMRVLKKTGNEQEWKIKLQVLDPVPKPVIKIEKIEDMDDNCYLKLSCVIPGESVNYTWYGDKRPFPKELQNSVLETTLMPHNYSRCYTCQVSNSVSSKNGTVCLSPPCTLARS
notes: Comparator; not shown: Fc
B2: recombinant human CD2 protein (rhCD2-His) (receptor, UniProt P06729 25-209, looked up)
chain: KEITNALETWGALGQDINLDIPSFQMSDDIDDIKWEKTSDKKKIAQFRKEKETFKEKDTYKLFKNGTLKIKHLKTDDQDIYKVSIYDTKGKNVLEKIFDLKIQERVSKPKISWTCINTTLTCEVMNGTDPELNLYQDGKHLKLSQRVITHKWTTSLSAKFKCTAGNKVSKESSVEPVSCPEKGLD
notes: also called recombinant CD2 protein; not shown: His tag
B3: human SLAMF6-Fc-NKG2A chimeric protein (Fc fusion)
chain: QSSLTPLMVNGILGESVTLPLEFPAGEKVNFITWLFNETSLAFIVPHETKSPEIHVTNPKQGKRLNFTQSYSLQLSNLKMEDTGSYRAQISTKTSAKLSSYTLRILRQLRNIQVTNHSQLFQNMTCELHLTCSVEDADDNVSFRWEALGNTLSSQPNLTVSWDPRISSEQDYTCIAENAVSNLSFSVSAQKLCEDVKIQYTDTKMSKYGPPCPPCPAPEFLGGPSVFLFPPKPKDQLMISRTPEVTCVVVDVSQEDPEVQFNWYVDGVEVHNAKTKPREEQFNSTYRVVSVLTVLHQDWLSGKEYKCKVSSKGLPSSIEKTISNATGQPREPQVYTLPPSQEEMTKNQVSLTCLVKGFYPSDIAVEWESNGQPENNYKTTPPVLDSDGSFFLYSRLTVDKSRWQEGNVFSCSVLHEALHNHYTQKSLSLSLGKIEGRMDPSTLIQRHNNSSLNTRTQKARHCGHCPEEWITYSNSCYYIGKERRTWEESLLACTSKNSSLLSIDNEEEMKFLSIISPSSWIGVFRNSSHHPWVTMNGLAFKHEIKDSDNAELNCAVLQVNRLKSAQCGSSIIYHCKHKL
notes: also called hSLAMF6-Fc-NKG2A
B4: recombinant human CD58-Fc fusion protein (rhCD58-Fc) (Fc fusion, UniProt P19256 29-215, looked up)
chain: FSQQIYGVVYGNVTFHVPSNVPLKEVLWKKQKDKVAELENSEFRAFSSFKNRVYLDTVSGSLTIYNLTSSDEDEYEMESPNITDTMKFFLYVLESLPSPTLTCALTNGSIEVQCMIPEHYNSHRGLIMYSWDCPMEQCKRNSTSIYFKMENDLPQKIQCTLSNPLFNTTSSIILTTCIPSSGHSRHR
notes: Positive control; also called recombinant hCD58-Fc protein; not shown: Fc
B5: human CD58-Fc-NKG2A chimeric protein (Fc fusion)
chain: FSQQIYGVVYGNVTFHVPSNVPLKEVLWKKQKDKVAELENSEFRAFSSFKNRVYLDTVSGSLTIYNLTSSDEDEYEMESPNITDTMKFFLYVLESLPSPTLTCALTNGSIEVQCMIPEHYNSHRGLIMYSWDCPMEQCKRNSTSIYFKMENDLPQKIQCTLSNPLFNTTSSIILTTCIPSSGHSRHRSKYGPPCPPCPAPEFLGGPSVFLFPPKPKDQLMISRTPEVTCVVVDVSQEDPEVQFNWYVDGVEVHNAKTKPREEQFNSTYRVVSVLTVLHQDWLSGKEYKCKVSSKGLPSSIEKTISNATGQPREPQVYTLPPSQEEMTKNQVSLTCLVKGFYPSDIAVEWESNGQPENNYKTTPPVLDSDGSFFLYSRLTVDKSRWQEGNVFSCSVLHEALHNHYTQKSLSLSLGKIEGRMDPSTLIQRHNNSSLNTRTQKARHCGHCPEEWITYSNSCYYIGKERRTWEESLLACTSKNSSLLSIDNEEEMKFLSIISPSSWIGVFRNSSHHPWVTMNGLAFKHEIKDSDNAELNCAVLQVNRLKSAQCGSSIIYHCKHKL
notes: also called hCD58-Fc-NKG2A
B6: human TGFBR2-Fc-NKG2A chimeric protein (Fc fusion)
chain: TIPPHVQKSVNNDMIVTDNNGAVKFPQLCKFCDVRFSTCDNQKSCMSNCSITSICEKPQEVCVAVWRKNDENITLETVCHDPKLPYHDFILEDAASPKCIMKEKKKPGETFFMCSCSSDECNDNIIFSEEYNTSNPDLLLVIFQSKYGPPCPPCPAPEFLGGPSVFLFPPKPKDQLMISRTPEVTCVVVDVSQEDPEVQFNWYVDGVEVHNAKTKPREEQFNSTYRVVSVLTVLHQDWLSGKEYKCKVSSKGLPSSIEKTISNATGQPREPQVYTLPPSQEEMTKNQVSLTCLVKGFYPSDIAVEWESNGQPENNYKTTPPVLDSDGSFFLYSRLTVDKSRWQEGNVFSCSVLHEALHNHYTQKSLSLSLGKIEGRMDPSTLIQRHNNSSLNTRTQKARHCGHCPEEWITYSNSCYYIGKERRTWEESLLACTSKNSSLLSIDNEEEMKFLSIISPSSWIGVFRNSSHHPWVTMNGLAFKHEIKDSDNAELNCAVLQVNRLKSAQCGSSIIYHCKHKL
notes: also called hTGFBR2-Fc-NKG2A

Tests used:
[1] = molecular target: T1, recombinant human 2B4 protein …; assay: ELISA: coat rh2B4-His (Sino 10042-H08H), detection Anti-hFc-HRP
Protocol: Increasing amounts of the indicated chimeric proteins or rhCD48-Fc were added and detected using an anti-mFc-HRP (for mCD80-Fc-NKG2A) or anti-hFc-HRP (for rest of the proteins).
CD48 is the ligand for 2B4. To understand whether the CD48 parts of the hCD48-Fc-NKG2A chimeric protein can bind 2B4, ELISA-based assays were performed. Briefly, recombinant human 2B4 protein (rh2B4-His) was coated on plates and increasing amounts of the hCD48-Fc-NKG2A and mCD80-Fc-NKG2A chimeric proteins and recombinant human CD48-Fc (rhCD48-Fc) protein was added to the plates for capture by the plate-bound recombinant 2B4 protein. The hCD48-Fc-NKG2A chimeric protein and recombinant human CD48-Fc (rhCD48-Fc) protein bound to the recombinant 2B4 protein was detected using an anti-human Fc HRP. The mCD80-Fc-NKG2A chimeric protein, which was used as a negative control, bound to the recombinant 2B4 protein was detected using an anti-mouse Fc HRP.

[2] = molecular target: B4; assay: ELISA: coat rhCD2-His (Acro CD2-H5226), detection Anti-hFc-HRP
Protocol: (§1) Recombinant human CD2 (rhCD2) protein was coated on plates. Increasing amounts of the indicated chimeric proteins or Recombinant human CD58-Fc fusion protein (rhCD58-Fc) were added and detected using an anti-mFc-HRP (for mCD80-Fc-NKG2A) or anti-hFc-HRP (for rest of the proteins).
(§2) CD2 is a transmembrane protein in T cells that binds to its ligand CD58 on APC in humans and on CD48 in rodents. To understand whether the CD48 and CD58 parts of the hCD48-Fc-NKG2A, and hCD58-Fc-NKG2A chimeric protein can bind CD2, ELISA-based assays were performed. Briefly, recombinant human CD2 protein (rhCD2-His) was coated on plates and increasing amounts of the hCD48-Fc-NKG2A, hCD58-Fc-NKG2A, and mCD80-Fc-NKG2A chimeric proteins and recombinant hCD58-Fc protein was added to the plates for capture by the plate-bound recombinant CD2 protein. The […] chimeric protein served as a negative control and recombinant hCD58-Fc protein served as a positive control. The hCD48-Fc-NKG2A and hCD58-Fc-NKG2A, chimeric proteins and recombinant hCD58-Fc protein bound to the recombinant CD2 protein was detected using an anti-human Fc HRP. The mCD80-Fc-NKG2A chimeric protein bound to the recombinant CD2 protein was detected using an anti-mouse Fc HRP.

[3] = molecular target: T4, recombinant HLA-E-His protein (human, UniProt P13747 22-305, limits assumed); assay: ELISA: the chimeric protein is the titrated coat (1:3), detection HLA-E-His (Novus NBP2-47435PEP), HRP Anti-6x-His-HRP
T4 construct: also called recombinant HLA-E (HLA-E-His); not shown: His tag
Protocol: (§3) Similarly, increasing amounts of the hTGFBR2-Fc-NKG2A and hSLAMF6-Fc-NKG2A chimeric proteins chimeric proteins or a negative control protein was coated on plates. Recombinant HLA-E-His protein was added to the plates for capture by the plate-bound chimeric proteins or the negative control protein. The captured HLA-E-His protein was detected using an anti-6×-His-HRP antibody.

[4] = molecular target: T2, recombinant human SLAMF6-Fc …; assay: dual ELISA; coat rhSLAMF6-Fc, hSLAMF6-Fc-NKG2a titrated, detection HLA-E-His, Anti-His-6x-HRP; the signal needs both bindings
Protocol: Increasing amounts of the hSLAMF6-Fc-NKG2A chimeric protein was added and detected using HLA-E-His. A chimeric protein comprising ECD of a type II transmembrane protein other than NKG2A was used as a negative control.
To understand whether the hSLAMF6-Fc-NKG2A chimeric protein can binds simultaneously to both hSLAMF6 and HLA-E, the following ELISA experiment was carried out. Briefly, and recombinant hSLAMF6 (rhSLAMF6-Fc) protein was coated on plates. Increasing amounts of the hSLAMF6-Fc-NKG2A chimeric protein was added to the plates for capture by the recombinant human SLAMF6-Fc (rhSLAMF6-Fc) protein. Further, recombinant HLA-E (HLA-E-His) protein was added to the plate for capture by hSLAMF6-Fc-NKG2A chimeric protein. The binding of the HLA-E-His protein was detected using an anti-His 6× HRP antibody.

[5] = molecular target: B2; assay: ELISA: coat rhCD2-His (Acro CD2-H5226), detection Anti-hFc-HRP
Protocol: as §1, §2

[6] = molecular target: T4, recombinant HLA-E-His protein; assay: ELISA: the chimeric protein is the titrated coat (1:3), detection HLA-E-His (Novus NBP2-47435PEP), HRP Anti-6x-His-HRP; remark: listed apart in the source
Protocol: as §3, with “In a complementary experiment,” for “Similarly,”, “hCD48-Fc-NKG2A, hCD58-Fc-NKG2A,” for “hTGFBR2-Fc-NKG2A”, “hCD80-Fc-NKG2A” for “hSLAMF6-Fc-NKG2A chimeric proteins”

[7] = molecular target: T3, hCD2 expressed on CHO-K1/hCD2 cells; assay: flow cytometry cell binding assay, CHOk1 cells, axis label GEO Mean - PE MFI
[8] = molecular target: T5, anti-human IgG antibody (plate-bound); assay: ELISA (single sided Fc): coat Anti-Human IgG (H+L) Jax# 109-005-088, detection HRP Goat anti-human FCgamma
T5 construct: also called anti-human Fc antibody
Protocol: Anti-human IgG was coated on plates and increasing amounts of the indicated chimeric proteins were added to the plates. hIgG was used as a positive control, and mCD80-Fc-NKG2A was used as a negative control. The binding was detected using an anti-human Fcgamma HRP.
To understand whether the Fc linkers from the native chimeric proteins can be accessed by anti-human antibodies, ELISA-based assays were performed. For these assays, an anti-human IgG antibody was coated on plates and increasing amounts of the hCD86-Fc-NKG2A and hTGFBR2-Fc-NKG2A, mCD80-Fc-NKG2a chimeric proteins, and a human IgG antibody were added to the plates for capture by the plate-bound anti-human antibody. The human IgG antibody was used as a positive control and to generate a standard curve. The mCD80-Fc-NKG2a chimeric protein was included as a negative control as containing a non-human Fc domain. The protein bound to the anti-human IgG antibody was detected using an anti-human Fcgamma HRP.

T4 sequence (P13747 22-305 limits assumed): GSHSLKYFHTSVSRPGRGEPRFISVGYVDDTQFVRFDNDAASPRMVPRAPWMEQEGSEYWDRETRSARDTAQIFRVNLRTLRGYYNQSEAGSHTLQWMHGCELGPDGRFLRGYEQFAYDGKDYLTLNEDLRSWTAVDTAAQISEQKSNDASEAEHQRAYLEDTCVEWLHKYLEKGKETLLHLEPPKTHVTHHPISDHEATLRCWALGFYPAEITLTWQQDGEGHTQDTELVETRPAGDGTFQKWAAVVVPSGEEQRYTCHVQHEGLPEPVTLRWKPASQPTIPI

Binder: B1
binding result [1]: binds

Binder: B2
binding result [2]: binds

Binder: B3
EC50 (read off the curve) [3]: ~6 µg/mL
EC50 (read off the curve) [4]: ~30 µg/mL

Binder: B4
EC50 (read off the curve) [5]: ~1 µg/mL

Binder: B5
EC50 (read off the curve) [6]: ~0.7 µg/mL
EC50 (read off the curve) [7]: ~1 µg/mL

Binder: B6
EC50 (read off the curve) [3]: ~5 µg/mL
EC50 (read off the curve) [8]: ~10 µg/mL
